Patent publication US5609876, “Peptide vaccines and associated methods for protection against feline leukemia virus” (University of Pittsburgh of the Commonwealth System of …, dated 1997)
No end group written: not given here.

Target: T1, PRN4358 (feline leukemia virus (FeLV 61-E gp70))
T1 peptide: VAPTTVGPKRIGTGDR-NH2
Assay: 1H-NMR of an equimolar (5 mM) mixture of PRN42 and PRN4358, amide proton protection in D2O

TPPQAMGPNLVLPDQKPPSRQSQTGSKVATQRPQTNESAPRS-NH2 [PRN42]
binding result: binds
